B1: Pistol ribozyme (parent)
chain: GGGUCGUUGUUCCAUAAUCGCGUGGAUAUGGCACGCAAGUUUCUACCGGGCACCGUAAAUGUCCGACUGGAGCCGUUCGGGCGGCUAUAAACAGACCUCAGGCCCGAAGCGUGGCGGCACCUGCCGCCGGUGGUAAAAAAGAUCGGAAGAGCACACGUCU

Variants of B1 are the subject of the data set. The experiment in a line: aptazyme ON/OFF ratio, guanine; higher = stronger switching; co-transcriptional cleavage with and without guanine.
On to U7A U8C U10C U11G C12A C13A, for which the “aptazyme ON/OFF ratio” value is 1.33.

With U7A U8C U10C U11A C12G C13U, the “aptazyme ON/OFF ratio” value is 1.21.

On to U7G U8A G9A U10A C12A C13U, for which the “aptazyme ON/OFF ratio” value worked out at 1.14.

As for U7A U8G G9U U10A U11C C12U, the “aptazyme ON/OFF ratio” value was 1.04.

On to U7C U8A G9A U10A U11C C12U C13G, for which the “aptazyme ON/OFF ratio” value worked out at 1.06.

U7C U8A G9A U10A U11C C12U C13A: the “aptazyme ON/OFF ratio” value came to 1.09.

In the case of U7G G9C U11G C12G C13A, the “aptazyme ON/OFF ratio” value is 1.17.

In the case of U7C U8G G9A U10G U11G C12U C13A, the “aptazyme ON/OFF ratio” value was determined as 1.42.

U7G U11C C12A C13G: the “aptazyme ON/OFF ratio” value came out at 1.1.

U7C U8A G9U U10C U11A C12G: the “aptazyme ON/OFF ratio” value came out at 1.12.

Take U7A U8A G9U U10G U11C C12G C13G: the “aptazyme ON/OFF ratio” value was 1.14.

Consider U7A U8A G9U U10G U11G C12U C13A, for which the “aptazyme ON/OFF ratio” value amounted to 1.47.

With U8A G9A U10G U11A C12G C13G, the “aptazyme ON/OFF ratio” value is 1.19.

In the case of U7C G9U U11G C12G C13A, the “aptazyme ON/OFF ratio” value is 1.18.

For U7G U8G G9A U11G C12U C13G, the “aptazyme ON/OFF ratio” value is 1.25.

U7C U8A U10G C12G C13G: the “aptazyme ON/OFF ratio” value worked out at 1.15.

In the case of U7A U8A G9A U10A U11G C12G C13G, the “aptazyme ON/OFF ratio” value amounted to 1.32.

On to U7A U8C G9U U11A, for which the “aptazyme ON/OFF ratio” value was found to be 1.19.

Consider U8G G9U U11G C13A, for which the “aptazyme ON/OFF ratio” value was 1.06.

For U7C G9C C12A C13G, the “aptazyme ON/OFF ratio” value worked out at 1.07.

Regarding U7C U8G G9U U10A U11G C12U C13U, the “aptazyme ON/OFF ratio” value is 1.14.

Turning to U8C G9U U10G U11A C12A C13A, the “aptazyme ON/OFF ratio” value amounted to 1.44.

Regarding U7A U8A G9C U10G C12A C13U, the “aptazyme ON/OFF ratio” value came out at 1.27.

U7G U8G G9U U10A U11A C12G C13A: the “aptazyme ON/OFF ratio” value is 1.2.

Take U7C U8A U11C C12A C13A: the “aptazyme ON/OFF ratio” value was 1.29.

With U7C U8A U10G U11G C12A C13A, the “aptazyme ON/OFF ratio” value stood at 1.18.

As to U7C U8A G9U U11C, the “aptazyme ON/OFF ratio” value amounted to 1.07.

Consider U8C G9A U10G U11G, for which the “aptazyme ON/OFF ratio” value worked out at 1.06.

For the variant U7G U8G G9C U10C U11G C12A, the “aptazyme ON/OFF ratio” value stood at 1.22.

U7A U8G G9A U10C C12A: the “aptazyme ON/OFF ratio” value came out at 1.25.

As to C12U C13U, the “aptazyme ON/OFF ratio” value worked out at 1.26.

Consider U7C G9C U10A U11G C12A C13U, for which the “aptazyme ON/OFF ratio” value came to 1.06.

In the case of U7C U8G G9A U10C U11A C13A, the “aptazyme ON/OFF ratio” value is 1.12.

For U7A U8A G9A U10G C13A, the “aptazyme ON/OFF ratio” value was 1.6.

Take U7G U8C G9U U11C C12A C13U: the “aptazyme ON/OFF ratio” value is 1.23.

Take U7G U8C G9U U10A C12G C13G: the “aptazyme ON/OFF ratio” value was 1.08.

In the case of U7C G9C U10C U11C C12U C13A, the “aptazyme ON/OFF ratio” value is 1.03.

U7C U8C G9C U10A U11G C12U C13U: the “aptazyme ON/OFF ratio” value worked out at 1.1.

In the case of U7G U8C U10A U11C C12U C13G, the “aptazyme ON/OFF ratio” value worked out at 1.12.

Turning to U8G G9A U11G C12A C13U, the “aptazyme ON/OFF ratio” value is 1.24.

Turning to U8A G9C U10C U11C C12G, the “aptazyme ON/OFF ratio” value was found to be 1.01.

In the case of U7G U8G G9U U10G U11C C12U, the “aptazyme ON/OFF ratio” value came out at 1.04.

Take U7G G9C U10G C13G: the “aptazyme ON/OFF ratio” value is 1.23.

U7G U8A G9A U10G C12A C13A: the “aptazyme ON/OFF ratio” value was determined as 1.18.

Consider U8C G9C U10C U11G C12G, for which the “aptazyme ON/OFF ratio” value came out at 1.11.

For the variant U8A U11C C12G, the “aptazyme ON/OFF ratio” value worked out at 1.51.

On to U7G G9C U10C U11A C12U, for which the “aptazyme ON/OFF ratio” value worked out at 1.4.

For U11A C13A, the “aptazyme ON/OFF ratio” value is 1.26.

In the case of U7G U8G G9A U10G U11A C12U C13U, the “aptazyme ON/OFF ratio” value amounted to 1.07.

Consider U7G U8A G9U U10A C12G C13A, for which the “aptazyme ON/OFF ratio” value amounted to 1.05.

For the variant U8C U10G U11C C13A, the “aptazyme ON/OFF ratio” value worked out at 1.05.

With U7C U8G G9U U10G C13G, the “aptazyme ON/OFF ratio” value was 1.17.

With U7G U8A G9U U10C U11A C12U C13U, the “aptazyme ON/OFF ratio” value stood at 1.06.

Regarding U7C U8C G9C U10G U11C C12A C13U, the “aptazyme ON/OFF ratio” value was 1.09.

Consider U7C U8C U10C U11A C12G C13G, for which the “aptazyme ON/OFF ratio” value came out at 1.29.

Take U8G G9U U10A U11G: the “aptazyme ON/OFF ratio” value turned out to be 1.16.

In the case of U7G U8C G9C U10C C12U, the “aptazyme ON/OFF ratio” value was found to be 1.16.

Turning to U8A G9C U10A U11A C12U C13A, the “aptazyme ON/OFF ratio” value was 1.18.

As to U7G U8G G9U U10A C12U C13U, the “aptazyme ON/OFF ratio” value worked out at 1.06.

U7A U8C G9U U10G U11G C13U: the “aptazyme ON/OFF ratio” value worked out at 1.17.

As to U7C U8G U10G U11C C12A, the “aptazyme ON/OFF ratio” value was determined as 1.34.

Regarding U7G U8C G9C U10G C12A C13U, the “aptazyme ON/OFF ratio” value came to 1.13.

In the case of U7C U8C G9U U11C C13A, the “aptazyme ON/OFF ratio” value was found to be 1.02.

On to U8C G9C C12U C13A, for which the “aptazyme ON/OFF ratio” value was 1.05.

Take U7A U8A G9A U10A U11A C12A: the “aptazyme ON/OFF ratio” value stood at 1.26.

As to U7A U8A G9A U10A U11A C12G, the “aptazyme ON/OFF ratio” value is 1.27.

As for U7G G9U U11A C12U C13A, the “aptazyme ON/OFF ratio” value was found to be 1.25.

As for U7G U8C G9A U11G C12U C13A, the “aptazyme ON/OFF ratio” value came out at 1.11.

Consider U7G U8G G9U U10A U11A C12U C13A, for which the “aptazyme ON/OFF ratio” value came to 1.11.

Turning to U7G U8A U11G C12G C13A, the “aptazyme ON/OFF ratio” value is 1.16.

Turning to U7G U8A G9A U11C C12G C13U, the “aptazyme ON/OFF ratio” value stood at 1.1.

On to G9A U10G C12A C13U, for which the “aptazyme ON/OFF ratio” value was found to be 1.69.

In the case of U7A U8A C12G C13U, the “aptazyme ON/OFF ratio” value was found to be 1.48.

Take U7A U8A G9U U10C U11G C13A: the “aptazyme ON/OFF ratio” value worked out at 1.1.

With U7G U8C U11C C12U, the “aptazyme ON/OFF ratio” value is 1.57.

Regarding U7C U8G G9A U10A C12U, the “aptazyme ON/OFF ratio” value worked out at 1.19.

On to U8A G9U U10G U11G C12A C13U, for which the “aptazyme ON/OFF ratio” value was 1.26.

On to U7A U8C G9U U10A U11C C12U C13A, for which the “aptazyme ON/OFF ratio” value worked out at 1.1.

For the variant U7A C12A C13G, the “aptazyme ON/OFF ratio” value is 1.2.

Take G9A U10G U11G C12G C13U: the “aptazyme ON/OFF ratio” value came out at 1.15.

Turning to G9C C12G, the “aptazyme ON/OFF ratio” value worked out at 1.35.

In the case of U7G U8C G9U U10G U11C C12G, the “aptazyme ON/OFF ratio” value came to 1.38.

Turning to U7G U8A G9A U10C U11A C12G C13U, the “aptazyme ON/OFF ratio” value is 1.12.

The values above are taken from the RNAGym collection of RNA variant scans (doi:10.1021/acssynbio.7b00057).
